In patent publication US20190016816A1 (APTEVO RESEARCH AND DEVELOPMENT, published 2019):

Experiments:
[1] = target: T1, human 5T4 on cells (human, UniProt Q13641 32-420); assay: cell-based or functional assay
T1 sequence: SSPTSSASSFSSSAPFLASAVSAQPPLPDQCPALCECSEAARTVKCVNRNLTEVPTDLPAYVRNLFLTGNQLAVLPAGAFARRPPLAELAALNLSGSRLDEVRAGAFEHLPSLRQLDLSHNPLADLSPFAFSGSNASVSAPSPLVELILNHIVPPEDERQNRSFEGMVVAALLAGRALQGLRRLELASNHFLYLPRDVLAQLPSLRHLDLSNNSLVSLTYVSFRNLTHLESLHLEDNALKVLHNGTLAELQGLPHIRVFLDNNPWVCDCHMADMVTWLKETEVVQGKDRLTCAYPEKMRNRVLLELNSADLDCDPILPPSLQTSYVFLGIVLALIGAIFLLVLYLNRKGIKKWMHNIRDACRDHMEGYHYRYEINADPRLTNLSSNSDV

[2] = target: T2, FcγRIIIa (CD16a Phe158) (UniProt P08637 17-254, limits assumed); assay: flow cytometry, CHO cells stably expressing CD16a Phe158, fluorescent anti-human IgG secondary, MFI (mean)
T2 construct: whole, on cells; allotype Phe158 as printed
T2 sequence (P08637 17-254 limits assumed): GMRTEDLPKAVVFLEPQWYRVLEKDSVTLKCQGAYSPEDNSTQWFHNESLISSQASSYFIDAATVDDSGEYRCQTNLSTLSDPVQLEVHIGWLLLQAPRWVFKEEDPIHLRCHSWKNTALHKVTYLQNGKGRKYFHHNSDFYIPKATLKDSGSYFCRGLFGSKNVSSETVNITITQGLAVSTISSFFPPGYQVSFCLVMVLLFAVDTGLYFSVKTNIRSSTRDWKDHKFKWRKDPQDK
From the text: (§1) ALG.APV-210 contains mutations introduced to prevent interaction with Fcγ receptors (FcγR) that could lead to FcγR-mediated T-cell activation or ADCC, ADCP, CDC etc. Binding of ALG.APV-210 was therefore tested on CHO cell transfectants stably expressing the following FcγR: FcγRI (CD64), FcγRIIa (CD32a His131), FcγRIIb (CD32b), FcγRIIIa (CD16a Val158 and CD16a Phe158), and FcγRIIIb (CD16b). Untransfected CHO cells were used as negative control. A control human IgG1 molecule was used as a positive control. Different concentrations of ALG.APV-210 or control IgG1 were incubated with the FcγR-expressing cell lines, washed, and labeled with a secondary anti-human IgG reagent. Binding of ALG.APV-210 and the control IgG1 was detected by flow cytometry.

[3] = target: T3, FcγRIIIa (CD16a Val158) (UniProt P08637 17-254, limits assumed); assay: flow cytometry, CHO cells stably expressing CD16a Val158, fluorescent anti-human IgG secondary, MFI (mean)
T3 construct: whole, on cells; allotype Val158 as printed
T3 sequence (P08637 17-254 F176V limits assumed): as the sequence (P08637 17-254 limits assumed) above, with F160V counted along it
From the text: as §1

[4] = target: T4, human CD137 on cells (human, UniProt Q07011 24-255); assay: flow cytometry, MFI of the CD137 positive cells; human CD8 T cells, MFI of CD137 positive cells
T4 construct: also called 4-1BB; TNFRSF9 (CHO-K1/human CD137 cells)
T4 sequence (Q07011 24-255 limits assumed): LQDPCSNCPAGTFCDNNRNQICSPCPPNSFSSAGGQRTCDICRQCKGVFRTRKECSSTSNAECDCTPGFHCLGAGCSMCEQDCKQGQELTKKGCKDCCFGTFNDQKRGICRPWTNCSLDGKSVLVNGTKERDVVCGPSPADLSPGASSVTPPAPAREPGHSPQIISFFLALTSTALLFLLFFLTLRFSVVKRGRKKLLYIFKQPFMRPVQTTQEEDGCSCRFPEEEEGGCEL
Protocol: Following 48 h of incubation with or without CD3, human and cynomolgus PBMC were harvested, pooled, recounted and diluted in FACS buffer (PBS+0.5% BSA, 0.05% NaN₃) to a concentration of 5×10⁶ cells/mL. 50 μL (0.25×10⁶ cells) of cell solution was added to a 96-well FACS staining plate (Falcon #351190). Following 10 min of Fc-blocking in RT using Beriglobin (hIgG, 200 μg/mL), cells were washed in FACS buffer and then incubated for 1 h in 4° C. with 100 μL of the biotinylated ALG.APV-210 or negative control. The antibodies were added in a serial dilution starting either at 5 μg/mL titrating down in a 12 step ⅓ dilution down to […] (exp 1) or 1 μg/mL titrating down in a 12 step ½ dilution down to 0.0005 μg/mL (exp 2). […] Cells were analysed for ALG.APV-210 binding using flow cytometry by gating on viable, single cells expressing CD3 and CD8. MFI values (FMO subtracted) from 2 independent experiments as well as normalized pooled data from 2 experiments and EC₅₀-values were determined and plotted using GraphPad Prism 7, non-linear regression log (agonist) vs. normalized response—variable slope, n=6 donors/group.

[5] = target: T1, human 5T4 on cells; assay: flow cytometry, CT26-hu5T4^low cells, streptavidin-PE, normalized MFI of 2 pooled experiments
Protocol: Prior to the FACS staining, all cell lines were characterized for their 5T4 expression levels using a receptor density kit (Quantum Simply Cellular, anti-human IgG, Bangs Laboratories, Inc). Adherent cell lines were cultured according to their supplier's instructions and were harvested from their cell culture flasks using Trypsin/EDTA, counted in R10 medium in a Burker chamber, and diluted in FACS buffer (PBS+0.5% BSA, 0.05% NaN₃) to a concentration of 4×10⁶ cells/mL. 50 μL (0.20×10⁶) of cell solution was added to a 96-well FACS staining plate (Falcon #351190). Cells were incubated for 20 min in 4° C. with 50 μL of the biotinylated ALG.APV-210 (2× final concentration). The antibodies were added in a serial dilution starting at 20 μg/mL titrating down in a 12 step ½ dilution down to 0.010 μg/mL. Following 2× washing with FACS buffer, cells were incubated for 30 min in 4° C. with 100 μL of a secondary antibody (streptavidin-PE, BD #554061, diluted 1/500). […] Cells were analysed for ALG.APV-210 binding using flow cytometry (FACSVerse) by gating on single cells. MFI values (secondary antibody only subtracted) from 1 out of 2 independent experiments, as well as normalized data and EC₅₀-values of pooled data from 2 experiments were determined and plotted using GraphPad Prism 7, non-linear regression log (agonist) vs. normalized response—variable slope.

B1: ALG.APV-210 (bispecific antibody)
chain: EVQLLESGGGLVQPGGSLRLSCAASGFTFSHGSMYWVRQAPGKGLEWVSSISSGSGSTYYADSVKGRFTISHDNSKNTLYLQMNSLRAEDTAVYYCARSSYYGSYYSIDYWGQGTLVTVSSGGGGSGGGGSGGGGSGGGGSDIQMTQSPSSLSASVGDRVTITCRASQSISSYLNWYQQKPGKAPKLLIYAASSLQSGVPSRFSGSGSGTDFTLTISSLQPEDFATYYCQQYYDNLPTFGQGTKLEIKEPKSSDKTHTCPPCPAPEAAGAPSVFLFPPKPKDTLMISRTPEVTCVVVDVSHEDPEVKFNWYVDGVEVHNAKTKPREEQYNSTYRVVSVLTVLHQDWLNGKEYKCAVSNKALPAPIEKTISKAKGQPREPQVYTLPPSRDELTKNQVSLTCLVKGFYPSDIAVEWESNGQPENNYKTTPPVLDSDGSFFLYSKLTVDKSRWQQGNVFSCSVMHEALHNHYTQKSLSLSPGSGGGGSGGGGSGGGGSPSEVQLLESGGGLVQPGGSLRLSCAASGFTFSSYAMSWVRQAPGKCLEWVSAISGSGGSTYYADSVKGRFTISRDNSKNTLYLQMNSLRAEDTAVYYCARYYGGYYSAWMDYWGQGTLVTVSSGGGGSGGGGSGGGGSGGGGSDIQMTQSPSSLSASVGDRVTITCRASQSISSFLNWYQQKPGKAPKLLIYAASSLQSGVPSRFSGSGSGTDFTLTISSLQPEDSATYYCQQTYGYLHTFGCGTKLEIKR
notes: Optimized ADAPTIR scFv-Fc-scFv homodimer with stabilizing disulfide in the 1210 scFv; also called 5T4-CD137 bispecific antibody
maximal IFNγ release with CT26-h5T4^low cells relative to CT26-h5T4^high cells [1]: 82%
maximal IFNγ release with CT26-wt cells (no 5T4) relative to CT26-h5T4^high cells [1]: 7%
binding result [2]: no binding (tested: 1000 nM)
binding result [3]: no binding (tested: 1000 nM)

B2: biotinylated ALG.APV-210 (bispecific antibody)
chain: EVQLLESGGGLVQPGGSLRLSCAASGFTFSHGSMYWVRQAPGKGLEWVSSISSGSGSTYYADSVKGRFTISHDNSKNTLYLQMNSLRAEDTAVYYCARSSYYGSYYSIDYWGQGTLVTVSSGGGGSGGGGSGGGGSGGGGSDIQMTQSPSSLSASVGDRVTITCRASQSISSYLNWYQQKPGKAPKLLIYAASSLQSGVPSRFSGSGSGTDFTLTISSLQPEDFATYYCQQYYDNLPTFGQGTKLEIKEPKSSDKTHTCPPCPAPEAAGAPSVFLFPPKPKDTLMISRTPEVTCVVVDVSHEDPEVKFNWYVDGVEVHNAKTKPREEQYNSTYRVVSVLTVLHQDWLNGKEYKCAVSNKALPAPIEKTISKAKGQPREPQVYTLPPSRDELTKNQVSLTCLVKGFYPSDIAVEWESNGQPENNYKTTPPVLDSDGSFFLYSKLTVDKSRWQQGNVFSCSVMHEALHNHYTQKSLSLSPGSGGGGSGGGGSGGGGSPSEVQLLESGGGLVQPGGSLRLSCAASGFTFSSYAMSWVRQAPGKCLEWVSAISGSGGSTYYADSVKGRFTISRDNSKNTLYLQMNSLRAEDTAVYYCARYYGGYYSAWMDYWGQGTLVTVSSGGGGSGGGGSGGGGSGGGGSDIQMTQSPSSLSASVGDRVTITCRASQSISSFLNWYQQKPGKAPKLLIYAASSLQSGVPSRFSGSGSGTDFTLTISSLQPEDSATYYCQQTYGYLHTFGCGTKLEIKR
notes: also called ALG.APV-210 (biotinylated for FACS detection)
EC50 [4]: 0.17 nM
EC50 [5]: 11 nM
